{
  "source": "paper PMC12175530",
  "key": {"[1]": {"biological_target": "T1, EsrB-His6 (Edwardsiella piscicida) (UniProt A0AAU8P338)", "T1 sequence": "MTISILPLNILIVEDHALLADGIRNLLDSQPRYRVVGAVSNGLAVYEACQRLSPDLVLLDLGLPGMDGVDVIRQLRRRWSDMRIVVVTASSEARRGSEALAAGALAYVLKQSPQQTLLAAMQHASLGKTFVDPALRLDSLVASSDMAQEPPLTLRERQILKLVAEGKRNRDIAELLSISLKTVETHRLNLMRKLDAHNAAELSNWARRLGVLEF", "experiment": "EMSA", "conditions": "20 mM Tris-HCl pH 7.5, 50 mM MgCl2, 5% glycerol, 20 uL, 2 h at 25 C"}, "[2]": {"biological_target": "T2, EseE-His6 (Edwardsiella piscicida) (UniProt A0AAU8P1U3)", "T2 sequence": "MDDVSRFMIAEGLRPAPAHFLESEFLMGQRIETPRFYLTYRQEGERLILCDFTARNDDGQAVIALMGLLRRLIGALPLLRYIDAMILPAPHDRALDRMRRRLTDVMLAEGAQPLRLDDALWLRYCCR", "experiment": "EMSA", "conditions": "20 mM Tris-HCl pH 7.5, 50 mM MgCl2, 5% glycerol, 20 uL, 2 h at 25 C"}},
  "data": [
    {"sequence": "GCCCGAACACCCGAGAAAAACCAACGTAACTTCAGGTAATTACCCGATATCTTTCGCGCGGGTTCAGCACCCAGAATGGGCCGGGGAAAAAGAGTTCGTCTCCCGATAACCAAACAGCAAACGTTATGCAGCTTCTCGAAAGTTCGCCCGCTAACGGCGTTCTAGCATCACCTCATCGGTAGTCAATAGGAGGTTTCACT (double strand) [escC -200 to -1]", "values": [
      {"measurement": "binding", "setting": "[1]", "value": "binds"},
      {"measurement": "binding", "setting": "[2]", "value": "binds"}
    ]}
  ]
}
